In paper PMC6780499, “Characterization, Recombinant Production and Structure-Function Analysis of NvCI, A Picomolar Metallocarboxypeptidase Inhibitor from the Marine Snail Nerita versicolor” (Marine Drugs, 2019):
No end group written: not given here.

What was measured:
Experiment in all cases: Ki, residual activity
hCPA2 = target: T1, hCPA2 (Homo sapiens (Human), UniProt P48052)
T1 chain: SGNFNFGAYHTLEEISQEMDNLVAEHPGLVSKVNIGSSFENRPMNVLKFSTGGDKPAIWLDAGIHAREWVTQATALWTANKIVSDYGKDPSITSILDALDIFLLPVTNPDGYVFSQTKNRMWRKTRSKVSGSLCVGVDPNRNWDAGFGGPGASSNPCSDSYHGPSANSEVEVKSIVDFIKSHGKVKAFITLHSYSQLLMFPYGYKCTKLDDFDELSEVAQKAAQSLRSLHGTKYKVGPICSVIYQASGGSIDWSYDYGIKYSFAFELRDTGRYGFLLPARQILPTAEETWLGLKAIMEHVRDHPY

hCPB = target: T2, hCPB (Homo sapiens (Human), UniProt P15086)
T2 chain: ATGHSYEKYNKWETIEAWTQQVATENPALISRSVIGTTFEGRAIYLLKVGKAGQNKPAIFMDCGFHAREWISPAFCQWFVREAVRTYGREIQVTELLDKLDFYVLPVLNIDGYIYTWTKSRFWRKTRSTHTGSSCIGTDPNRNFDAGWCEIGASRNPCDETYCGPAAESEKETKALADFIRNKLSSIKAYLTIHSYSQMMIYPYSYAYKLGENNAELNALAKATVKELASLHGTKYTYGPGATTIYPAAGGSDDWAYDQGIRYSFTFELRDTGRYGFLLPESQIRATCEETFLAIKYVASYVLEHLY

hCPD = target: T3, hCPD (Homo sapiens (Human), UniProt O75976)
T3 chain: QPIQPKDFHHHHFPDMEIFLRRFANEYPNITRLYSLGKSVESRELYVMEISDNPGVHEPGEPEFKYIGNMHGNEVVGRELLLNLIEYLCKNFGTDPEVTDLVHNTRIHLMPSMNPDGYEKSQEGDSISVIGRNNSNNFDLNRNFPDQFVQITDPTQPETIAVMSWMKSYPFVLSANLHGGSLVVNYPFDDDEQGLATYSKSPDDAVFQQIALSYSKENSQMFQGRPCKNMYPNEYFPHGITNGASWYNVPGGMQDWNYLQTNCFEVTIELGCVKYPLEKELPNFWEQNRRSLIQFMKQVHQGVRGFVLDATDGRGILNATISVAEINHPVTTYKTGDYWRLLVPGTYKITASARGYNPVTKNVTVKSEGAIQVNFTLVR

pCPB = target: T4, pCPB (Sus scrofa (Pig), UniProt P09955)
T4 chain: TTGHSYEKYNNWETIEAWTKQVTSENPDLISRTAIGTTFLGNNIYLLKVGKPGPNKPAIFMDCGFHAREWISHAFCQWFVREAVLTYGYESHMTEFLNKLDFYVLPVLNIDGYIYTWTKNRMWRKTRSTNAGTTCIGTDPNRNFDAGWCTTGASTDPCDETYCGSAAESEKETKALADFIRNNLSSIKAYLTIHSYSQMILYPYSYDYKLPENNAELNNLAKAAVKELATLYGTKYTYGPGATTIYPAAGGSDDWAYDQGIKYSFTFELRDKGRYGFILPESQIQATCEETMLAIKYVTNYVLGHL

bTAFI = target: T5, bTAFI (Bos taurus (Bovine), UniProt Q2KIG3)
T5 chain: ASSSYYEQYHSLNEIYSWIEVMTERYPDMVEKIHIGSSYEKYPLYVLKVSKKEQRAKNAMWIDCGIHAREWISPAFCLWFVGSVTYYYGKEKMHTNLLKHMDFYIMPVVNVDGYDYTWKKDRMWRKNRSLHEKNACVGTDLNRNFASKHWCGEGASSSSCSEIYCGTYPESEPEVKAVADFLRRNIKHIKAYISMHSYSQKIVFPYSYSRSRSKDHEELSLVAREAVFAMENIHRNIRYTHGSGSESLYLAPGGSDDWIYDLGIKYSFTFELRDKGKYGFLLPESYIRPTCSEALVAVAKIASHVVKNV

hCPA4 = target: T6, hCPA4 (Homo sapiens (Human), UniProt Q9UI42)
T6 chain: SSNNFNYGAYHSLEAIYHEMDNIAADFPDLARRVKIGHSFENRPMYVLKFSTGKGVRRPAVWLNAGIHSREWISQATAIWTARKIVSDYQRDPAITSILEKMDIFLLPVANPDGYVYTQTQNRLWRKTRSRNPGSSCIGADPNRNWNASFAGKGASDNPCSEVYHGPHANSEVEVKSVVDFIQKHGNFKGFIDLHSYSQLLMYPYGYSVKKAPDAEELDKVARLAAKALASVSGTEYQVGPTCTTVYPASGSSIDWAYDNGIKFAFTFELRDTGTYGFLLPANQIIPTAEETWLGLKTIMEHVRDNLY

rCPA3 = target: T7, rCPA3 (Rattus norvegicus (Rat), UniProt P21961)
T7 chain: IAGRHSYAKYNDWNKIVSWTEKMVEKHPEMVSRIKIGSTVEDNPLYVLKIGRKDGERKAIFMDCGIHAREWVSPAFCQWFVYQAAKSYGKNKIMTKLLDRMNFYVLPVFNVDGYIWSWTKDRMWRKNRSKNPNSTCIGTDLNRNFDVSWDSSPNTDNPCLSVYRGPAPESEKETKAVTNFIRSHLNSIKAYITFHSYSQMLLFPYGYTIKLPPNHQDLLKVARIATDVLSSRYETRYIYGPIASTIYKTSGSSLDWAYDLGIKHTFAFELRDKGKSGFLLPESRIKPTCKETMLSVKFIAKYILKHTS

hCPA1 = target: T8, hCPA1 (Homo sapiens (Human), UniProt P15085)
T8 chain: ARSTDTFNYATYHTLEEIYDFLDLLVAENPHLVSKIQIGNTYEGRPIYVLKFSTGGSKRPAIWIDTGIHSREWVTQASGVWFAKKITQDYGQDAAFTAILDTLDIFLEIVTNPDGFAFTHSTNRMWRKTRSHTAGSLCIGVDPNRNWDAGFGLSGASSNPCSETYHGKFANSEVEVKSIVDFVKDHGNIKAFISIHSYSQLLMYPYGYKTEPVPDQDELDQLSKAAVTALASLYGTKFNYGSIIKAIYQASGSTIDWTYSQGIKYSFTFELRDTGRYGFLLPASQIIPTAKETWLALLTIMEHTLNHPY

Kd (hCPA2): 2.94 nM
Kd (hCPB): 0.549 nM
Kd (hCPD): > 1000 nM
Kd (pCPB): 0.335 nM
Kd (bTAFI): 0.0841 nM
Kd (hCPA4): 0.0049 nM
Kd (rCPA3): 0.1 nM
Kd (hCPA1): 0.0012 nM
B1: NvCI (protein)
chain: FHVPDDRPCINPGRCPLVPDATCTFVCKAADNDFGYECQHVWTFEGQRVGCYA
modifications: disulfide (positions not given here); not fully specified (bridges); ends not checked
